T1: Smo^core (Drosophila Smoothened amino acids 1-663), C-terminally tagged with GFP10 (Drosophila, UniProt P91682 32-663)
T1 construct: signal peptide in the construct; Smoothened (Smo), Drosophila melanogaster, amino acids 1-663, truncated just after the third Gprk2 phosphorylation cluster; also called Smo^core-GFP10; source: S2-R+ cells, transfected (pRmHa3.puro, induced with CuSO4), in intact cells; not shown: GFP10, C-terminal, kept
T1 sequence (looked up): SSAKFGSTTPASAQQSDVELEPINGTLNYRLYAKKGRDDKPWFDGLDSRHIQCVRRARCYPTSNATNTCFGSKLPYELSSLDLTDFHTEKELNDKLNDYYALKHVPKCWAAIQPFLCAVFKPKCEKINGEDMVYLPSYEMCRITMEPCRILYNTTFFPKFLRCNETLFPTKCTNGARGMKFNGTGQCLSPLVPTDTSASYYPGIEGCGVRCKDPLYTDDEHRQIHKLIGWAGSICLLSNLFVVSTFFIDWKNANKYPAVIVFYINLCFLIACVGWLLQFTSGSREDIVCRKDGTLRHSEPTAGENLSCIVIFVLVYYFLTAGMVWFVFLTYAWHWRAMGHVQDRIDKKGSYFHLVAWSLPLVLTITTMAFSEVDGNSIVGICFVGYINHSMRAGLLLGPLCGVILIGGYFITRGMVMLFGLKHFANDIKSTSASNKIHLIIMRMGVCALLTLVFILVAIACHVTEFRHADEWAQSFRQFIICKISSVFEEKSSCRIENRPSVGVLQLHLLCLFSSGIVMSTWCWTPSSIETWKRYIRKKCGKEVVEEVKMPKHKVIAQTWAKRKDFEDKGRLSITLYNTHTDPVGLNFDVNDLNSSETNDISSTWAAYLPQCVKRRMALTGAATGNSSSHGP


Columns and labels:
[1] = target: Smo^SD.c12D (Smo^SD with Gprk2 phosphorylation clusters 1 and 2 changed to Asp), C-terminally tagged with GFP10 or RLucII (UniProt P91682); experiment: BRET; conditions: S2 cells, Luc + GFP10 tagged pair, read off a plot
[2] = target: T1, Smo^core (Drosophila Smoothened amino …); experiment: FRET or BRET; BRET in intact S2-R+ cells between C-terminally GFP10-tagged truncated Smo variants (300 ng) and Cos2-RLucII (75 ng), myc-Fu (75 ng) co-transfected; cells treated with control (beta-gal), gprk2 or smo 3'UTR dsRNA, without or with myc-Gprk2; net BRET; conditions: partners not purified

Molecule | response ([1]; dsRNA targeting β-gal (control), parent: est. 100) | response ([1]; gprk2 dsRNA, parent: est. 67) | fold increase of net BRET on Gprk2 overexpression against control cells [2]
Smo^SD (PKA- and CKI-phosphomimetic form of Drosophila Smoothened), C-terminally tagged with GFP10 or Renilla luciferase II (from UniProt P91682) S604D; T606D; T610D; T612D; S626D; S627D; T629D; S633D; S634D; T635D | 170 | 160 | –
Costal-2 (Cos2), C-terminally tagged with Renilla luciferase II (natural protein, Drosophila, UniProt O16844 1-1201, looked up, Costal-2 (Cos2), kinesin-like protein, Drosophila; also called Cos2-Luc; Cos2-RLucII; source: S2-R+ cells, transfected (pRmHa3.puro, induced with CuSO4), in intact cells; not shown: RLucII, C-terminal, kept) MEIPIQVAVRIFPHRELKDLLRSFGPTEPKKDAQAVDEGADSKDSEAQVPAAEKDNPSISETDPNGNAEQDSAADSKTIPDANGNDSGQKDYPDSAYCVQAIPISASALGLPSALPGGDPMDSIAAGLIQVGPHTVPVTHALPSSSSQEQVYHQTVFPLITLFLEGFDASVVTYGQRGQGKSYTLYGNVQDPTLTDSTEGVVQLCVRDIFSHISLHPERTYAINVGFVEICGGDVCDLLGMGNIHCTNVDAVFHWLQVGLSARQSLPAHTLFTLTLEQQWVSKEGLLQHRLSTASFSDLCGTERCGDQPPGRPLDAGLCMLEQVISTLTDPGLMYGVNGNIPYGQTTLTTLLKDSFGGRAQTLVILCVSPLEEHLPETLGNLQFAFKVQCVRNFVIMNTYSDDNTMIVQPAEPVPESNSSAGPLSQAGPGDNFGLQFAASQWSKLVTNAEGLFSKLIDSKLITEVEKEQIEEWLFLKQECEECLSSTEAMRQQKQLVPILEAEEPEDVNSEAANSESPNSDNENDTDNESHRPDLDDKIESLMEEFRDKTDALILEKHAEYLSKHPKAVMQSQDREIEAQPPEENGDDRKVSIGSRRRSVQPGASLSTAELAMLNRVASQQPPPPIDPESVVDPLESSSGEGIRQAALAAAAATAPIEQLQKKLRKLVAEIEGKQRQLREIEETIQVKQNIIAELVKNSDTRSHAKQRFHKKRAKLEAECDKAKKQLGKALVQGRDQSEIERWTTIIGHLERRLEDLSSMKHIAGESGQKVKKLQQSVGESRKQADDLQKKLRKECKLRCQMEAELAKLRESRETGKELVKAQGSPEQQGRQLKAVQARITHLNHILREKSDNLEEQPGPEQQETLRHEIRNLRGTRDLLLEERCHLDRKLKRDKVLTQKEERKLLECDEAIEAIDAAIEFKNEMITGHRSIDTSDRIQREKGEQMLMARLNRLSTEEMRTLLYKYFTKVIDLRDSSRKLELQLVQLERERDAWEWKERVLSNAVRQARLEGERNAVLLQRQHEMKLTLMLRHMAEETSASSASYGERALAPACVAPPVQASSDFDYDHFYKGGGNPSKALIKAPKPMPTGSALDKYKDKEQRSGRNIFAKFHVLTRYASAAAAGSSGSTAEESTALIESTTTATATTTSTTTTGAVGKVKDKALVSFRPEQLKRLMPAPTATKVTRQKNKIIIQDASRRN | – | – | > 2.2 fold

— PMC4091690, “A Broadly Conserved G-Protein-Coupled Receptor Kinase Phosphorylation Mechanism Controls Drosophila Smoothened Activity” (PLoS Genetics, 2014)
